B1: Hairpin Ribozyme (parent)
chain: GUCCUCUUUCACGUGCGCGUGAAAGAGAGAAGUGAACCAGAGAAACACACGUUGUGGUAUAUUACCUGGUA

Variants of: B1
Test: self-cleavage, relative activity (ratio to wild type); higher = more cleavage; co-transcriptional

Variant | self-cleavage
GUCCUCUUUCACGUGCGCGUGAAAGAGAGAAGUGAACCAGAGAAACACACGUUGUAGUAUAGUACCUGGUA | 0.293
GUCCUCUUUCACGUGCGCGUGAAAGAGAGAAGUGAACCAGAGAAACACACGUUGGGGUAUAUGACCUGGUA | 0
GUCCUCUUUCACGUGCGCGUGAAAGAGAGAAGUGAACCAGAGAAACACACGUUGUGAUAUAUUACCAGGUA | 0.2
GUCCUCUUUCACGUGCGCGUGAAAGAGAGAAGUGAACCAGAGAAACACACGUUGUGCUAUAUUACCUGUUA | 0.0905
GUCCUCUUUCACGUGCGCGUGAAAGAGAGAAGUGAACCAGAGAAACACACGUUGUUGUAGAUUACCUGGUA | 0.231
GUCCUCUUUCACGUGCGCGUGAAAGAGAGAAGUGAACCAGAGAAACACACGUUGUUGUACAUUACCUGGUA | 0.135
GUCCUCUUUCACGUGCGCGUGAAAGAGAGAAGUGAACCAGAGAAACACACGUUGUUGUAAAUUACCUGGUA | 0.219
GUCCUCUUUCACGUGCGCGUGAAAGAGAGAAGUGAACCAGAGAAACACACGUUGUAGUAUAUUACCUAGUA | 0.119
GUCCUCUUUCACGUGCGCGUGAAAGAGAGAAGUGAACCAGAGAAACACACGUUGUGAUAUAUUACCUGGGA | 0.111
GUCCUCUUUCACGUGCGCGUGAAAGAGAGAAGUGAACCAGAGAAACACACGUUGUGCUAUUUUACCUGGUA | 0.161
GUCCUCUUUCACGUGCGCGUGAAAGAGAGAAGUGAACCAGAGAAACACACGUUGGGGUAUAUUACCCGGUA | 0.181
GUCCUCUUUCACGUGCGCGUGAAAGAGAGAAGUGAACCAGAGAAACACACGUUGGGCUAUAUUACCUGGUA | 0.126
GUCCUCUUUCACGUGCGCGUGAAAGAGAGAAGUGAACCAGAGAAACACACGUUGUCGUAUAUGACCUGGUA | 0.175
GUCCUCUUUCACGUGCGCGUGAAAGAGAGAAGUGAACCAGAGAAACACACGUUGUCGUAUAUAACCUGGUA | 0.0712
GUCCUCUUUCACGUGCGCGUGAAAGAGAGAAGUGAACCAGAGAAACACACGUUGUCGUAUAUCACCUGGUA | 0.17
GUCCUCUUUCACGUGCGCGUGAAAGAGAGAAGUGAACCAGAGAAACACACGUUGUCUUAUAUUACCUGGUA | 0.153
GUCCUCUUUCACGUGCGCGUGAAAGAGAGAAGUGAACCAGAGAAACACACGUUGUCCUAUAUUACCUGGUA | 0.173
GUCCUCUUUCACGUGCGCGUGAAAGAGAGAAGUGAACCAGAGAAACACACGUUGUCGUACAUUACCUGGUA | 0.156
GUCCUCUUUCACGUGCGCGUGAAAGAGAGAAGUGAACCAGAGAAACACACGUUGUCGUAAAUUACCUGGUA | 0.106

Variant | self-cleavage
GUCCUCUUUCACGUGCGCGUGAAAGAGAGAAGUGAACCAGAGAAACACACGUUGUGAUAUACUACCUGGUA | 0.117
GUCCUCUUUCACGUGCGCGUGAAAGAGAGAAGUGAACCAGAGAAACACACGUUGUGAUAUAAUACCUGGUA | 0.212
GUCCUCUUUCACGUGCGCGUGAAAGAGAGAAGUGAACCAGAGAAACACACGUUGUUGUAUAUUACCUGGGA | 0.0481
GUCCUCUUUCACGUGCGCGUGAAAGAGAGAAGUGAACCAGAGAAACACACGUUGUUGGAUAUUACCUGGUA | 0.0453
GUCCUCUUUCACGUGCGCGUGAAAGAGAGAAGUGAACCAGAGAAACACACGUUGUGCUCUAUUACCUGGUA | 0.183
GUCCUCUUUCACGUGCGCGUGAAAGAGAGAAGUGAACCAGAGAAACACACGUUGUUGUAUAUGACCUGGUA | 0.0375
GUCCUCUUUCACGUGCGCGUGAAAGAGAGAAGUGAACCAGAGAAACACACGUUGGGGUAUAUUACCUGGGA | 0.17
GUCCUCUUUCACGUGCGCGUGAAAGAGAGAAGUGAACCAGAGAAACACACGUUGGGGUAUAUUACCUGGAA | 0.351
GUCCUCUUUCACGUGCGCGUGAAAGAGAGAAGUGAACCAGAGAAACACACGUUGUAGUAUAUUACGUGGUA | 0.114
GUCCUCUUUCACGUGCGCGUGAAAGAGAGAAGUGAACCAGAGAAACACACGUUGUAGUAUAUUACUUGGUA | 0.296
GUCCUCUUUCACGUGCGCGUGAAAGAGAGAAGUGAACCAGAGAAACACACGUUGGGGUAUAUUACCUGGUG | 0.241
GUCCUCUUUCACGUGCGCGUGAAAGAGAGAAGUGAACCAGAGAAACACACGUUGUUGUAUAGUACCUGGUA | 0.104
GUCCUCUUUCACGUGCGCGUGAAAGAGAGAAGUGAACCAGAGAAACACACGUUGUGCCAUAUUACCUGGUA | 0.258
GUCCUCUUUCACGUGCGCGUGAAAGAGAGAAGUGAACCAGAGAAACACACGUUGUGCAAUAUUACCUGGUA | 0.222
GUCCUCUUUCACGUGCGCGUGAAAGAGAGAAGUGAACCAGAGAAACACACGUUGUGAUUUAUUACCUGGUA | 0.0919
GUCCUCUUUCACGUGCGCGUGAAAGAGAGAAGUGAACCAGAGAAACACACGUUGUAGUAUAUUACCUGGUG | 0.245
GUCCUCUUUCACGUGCGCGUGAAAGAGAGAAGUGAACCAGAGAAACACACGUUGUAGUAUAUUACCAGGUA | 0.197
GUCCUCUUUCACGUGCGCGUGAAAGAGAGAAGUGAACCAGAGAAACACACGUUGUCGUAUAUUACCAGGUA | 0.205
GUCCUCUUUCACGUGCGCGUGAAAGAGAGAAGUGAACCAGAGAAACACACGUUGUCGUAUAUUACCGGGUA | 0.203

Source: the RNAGym collection of RNA variant scans (doi:10.7554/elife.80360)
